These results are taken from patent US20240209041A1 (SRI INTERNATIONAL, published 2024).

Primed or numbered codes have the meaning given here. [ ]: non-standard residue; d: D form. PEG11′ = not defined here

For the assay, the target named is purified EphA2 (UniProt P29317 25-534, limits assumed). Briefly: binding to purified EphA2; method not stated.
Sequence of purified EphA2 (P29317 25-534 limits assumed): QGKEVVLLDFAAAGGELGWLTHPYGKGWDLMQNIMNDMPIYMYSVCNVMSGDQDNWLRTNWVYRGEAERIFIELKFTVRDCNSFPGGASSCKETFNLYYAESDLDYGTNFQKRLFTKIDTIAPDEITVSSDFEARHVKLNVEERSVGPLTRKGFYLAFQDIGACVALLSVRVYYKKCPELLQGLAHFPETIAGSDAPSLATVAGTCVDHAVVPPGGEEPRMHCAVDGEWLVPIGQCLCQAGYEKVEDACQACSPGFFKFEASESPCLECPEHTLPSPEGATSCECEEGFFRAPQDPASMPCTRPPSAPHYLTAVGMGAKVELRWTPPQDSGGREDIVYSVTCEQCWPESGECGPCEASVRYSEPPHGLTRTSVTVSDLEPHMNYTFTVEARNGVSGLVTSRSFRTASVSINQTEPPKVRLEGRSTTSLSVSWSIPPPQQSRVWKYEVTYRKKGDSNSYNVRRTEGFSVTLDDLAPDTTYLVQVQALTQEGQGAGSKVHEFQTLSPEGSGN

B1: MGS_H1299.2 V4 (peptide)
peptide: Ac-YAAWPASGAWT[PEG11′]C-NH2
notes: Optimized MGS peptide from phage display (parent H1299.2); also called MGS_1299.2 V4
Take B1: the Kd worked out at 3.2 nM.

As usually defined, the Kd is a measure of binding affinity in units of concentration.
